In paper PMC3229823 (Virology, 2011):
Like-named read-outs stand apart in the source and are kept apart here.

Columns and labels:
[1] = target: the molecule itself; assay: SDS-resistant complexes on SDS-polyacrylamide gel, coomassie staining
[2] = target: the molecule itself

Row | Protein | binding result [1] | binding result [2]
1 | MBP-Agno (17-71) (domain or fragment) TWSGTKKRAQRILIFLLEFLLDFCTGEDSVDGKKRQRHSGLTEQTYSALPEPKAT | binds | 
2 | MBP-SV40 Agno (full length SV40 agnoprotein fused to MBP) (natural protein) MVLRRLSRQASVKVRRSWTESKKTAQRLFVFVLELLLQFCEGEDTVDGKRKKPERLTEKPES |  | binds
